Source: publication PMC2064708
Each block holds one substance with its values, some of them ahead of it.

Experiments:
[1] = molecular target: Shp2 N-terminal SH2-containing domain (UniProt Q06124); test: far-Western of β4 IP with GST-Shp2; settings: reference: wild-type β4
Shp2 = Shp2 (UniProt Q06124); test: co-IP, anti-β4 IP, Shp2 blot; settings: reference: wild-type β4; sites Y1257,Y1494

binding against the reference ([1]; sites Y1257,Y1494): weaker
Substance: β4 integrin (from UniProt P16144-2) β4-ΔShp2D (Y1257F, Y1494F)

binding against the reference (Shp2): weaker
Substance: β4 integrin (from UniProt P16144-2) double mutant Y1257F/Y1494F

binding against the reference ([1]; sites Y1440): weaker
Substance: β4 integrin (from UniProt P16144-2) β4-Y1440F
